The test has as its target cell surface of 293 AAV cells (the filing names αvβ3 and αvβ5 integrins as the receptors of RGD4C). The test is described as follows: 200000 TU/cell incubated 1 h on ice with 293AAV cells; unbound particles recovered from the medium, titrated on TG1 E. coli and counted as colonies; value relative to its control.

With “M13.PAAV vector (non-targeted phagemid/AAV particle lacking RGD4C) (from UniProt P69168 19-424)”, the binding efficiency (percentage of vectors bound to the cell surface) amounted to 7.1%.

In turn, “RGD.PAAV vector (RGD4C-targeted phagemid/AAV particle displaying the RGD4C peptide on the pIII minor coat protein)” gave a binding efficiency (percentage of vectors bound to the cell surface) of 58.2%.

The values above are taken from patent publication US20200239535A1.
